We go through 22 variants from the supplement of paper PMC7125110.

First the molecules themselves.
B1: glmS ribozyme (parent)
chain: AUAAAAGCGCCAGAACUACAGAAAUGUAGUUGACGAGGAGGAGGUUUAUCGAAUUUUCGGCGGAUGCCUCCAAA

Holding throughout (details): with glucosamine-6-phosphate
Variants of B1 are the subject of data set [1]. Nature of the data set: self-cleavage kobs at 40 uM GlcN6P; higher = faster cleavage; RNA array. In a few lines: (§1)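 Over ~14 h at 37 °C, tiles were imaged as glucosamine-6-phosphate (40 μM to 10 mM) in HEPES/KCl/Mg(OAc)2 buffer flowed across sequenced MiSeq chips. The chips carried barcoded ribozyme variants transcribed in situ by E. coli RNA polymerase and tracked with a hybridised Cy3 probe. After normalisation to baseline and to non-cleaving reference variants, one- or two-exponential decay fits of per-tile medians gave kobs. kcat and KM followed from weighted Michaelis–Menten fits across concentrations.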

The variants in data set [2] derive from B1. Nature of the data set: self-cleavage kobs at 160 uM GlcN6P; higher = faster cleavage; RNA array. In outline:
as §1

Data set [3] covers variants of B1. Nature of the data set: self-cleavage kobs at 640 uM GlcN6P; higher = faster cleavage; RNA array. In a few lines:
as §1

Data set [4] covers variants of B1. Nature of the data set: self-cleavage kobs at 2500 uM GlcN6P; higher = faster cleavage; RNA array. In outline: as §1
Data set [5] covers variants of B1. Nature of the data set: self-cleavage kobs at 10000 uM GlcN6P; higher = faster cleavage; RNA array. In outline:
as §1

± gives the standard error. Variants at the floor of the assay were thinned out.

With U47A A53G, in data set [1], the “self-cleavage kobs at 40 uM GlcN6P” value came out at 0.000816 ± 9.9e-05 s⁻¹. Besides, in data set [2], the “self-cleavage kobs at 160 uM GlcN6P” value turned out to be 0.00166 ± 0.0003 s⁻¹. Moreover, the “self-cleavage kobs at 640 uM GlcN6P” value in data set [3] came out at 0.00725 ± 0.0013 s⁻¹. In addition, the “self-cleavage kobs at 2500 uM GlcN6P” value in data set [4] was found to be 0.0106 ± 0.0028 s⁻¹. Further, the “self-cleavage kobs at 10000 uM GlcN6P” value in data set [5] is 0.04 ± 0.011 s⁻¹.
For G40C C58G C67U, in data set [1], the “self-cleavage kobs at 40 uM GlcN6P” value was less than 1e-05 s⁻¹.
On the same count and under the same terms, in the case of G9C A33U A52C it was less than 1e-05 s⁻¹.
On to C34G U45A, for which the “self-cleavage kobs at 40 uM GlcN6P” value in data set [1] is less than 1e-05 s⁻¹. In addition, the “self-cleavage kobs at 160 uM GlcN6P” value in data set [2] was less than 1e-05 s⁻¹. Further, the “self-cleavage kobs at 640 uM GlcN6P” value in data set [3] is less than 1e-05 s⁻¹. Moreover, the “self-cleavage kobs at 2500 uM GlcN6P” value in data set [4] is less than 1e-05 s⁻¹. Moreover, in data set [5], the “self-cleavage kobs at 10000 uM GlcN6P” value is less than 1e-05 s⁻¹.
G37C A48U U57G: the “self-cleavage kobs at 40 uM GlcN6P” value in data set [1] was less than 1e-05 s⁻¹. The “self-cleavage kobs at 640 uM GlcN6P” value in data set [3] is less than 1e-05 s⁻¹. Moreover, in data set [4], the “self-cleavage kobs at 2500 uM GlcN6P” value was less than 1e-05 s⁻¹.
On to A33C G40C G44U C50U, for which the “self-cleavage kobs at 40 uM GlcN6P” value in data set [1] was less than 1e-05 s⁻¹. Also, the “self-cleavage kobs at 2500 uM GlcN6P” value in data set [4] was less than 1e-05 s⁻¹.
For C10G U65A, the “self-cleavage kobs at 40 uM GlcN6P” value in data set [1] is less than 1e-05 s⁻¹. Further, the “self-cleavage kobs at 640 uM GlcN6P” value in data set [3] is less than 1e-05 s⁻¹. The “self-cleavage kobs at 10000 uM GlcN6P” value in data set [5] is less than 1e-05 s⁻¹.
Turning to G44A U69A, the “self-cleavage kobs at 40 uM GlcN6P” value in data set [1] was less than 1e-05 s⁻¹. Further, the “self-cleavage kobs at 160 uM GlcN6P” value in data set [2] is less than 1e-05 s⁻¹. Further, the “self-cleavage kobs at 640 uM GlcN6P” value in data set [3] is less than 1e-05 s⁻¹. For the same variant, the “self-cleavage kobs at 2500 uM GlcN6P” value in data set [4] is less than 1e-05 s⁻¹. Further, the “self-cleavage kobs at 10000 uM GlcN6P” value in data set [5] is less than 1e-05 s⁻¹.
A6C C10U U30G A52G: in data set [1], the “self-cleavage kobs at 40 uM GlcN6P” value was less than 1e-05 s⁻¹. The “self-cleavage kobs at 10000 uM GlcN6P” value in data set [5] is less than 1e-05 s⁻¹.
On to A33U C70A, for which the “self-cleavage kobs at 40 uM GlcN6P” value in data set [1] was less than 1e-05 s⁻¹.
For the variant C11G U57G, in data set [1], the “self-cleavage kobs at 40 uM GlcN6P” value is less than 1e-05 s⁻¹. Also, in data set [2], the “self-cleavage kobs at 160 uM GlcN6P” value was less than 1e-05 s⁻¹. In data set [4], the “self-cleavage kobs at 2500 uM GlcN6P” value was less than 1e-05 s⁻¹. In data set [5], the “self-cleavage kobs at 10000 uM GlcN6P” value is less than 1e-05 s⁻¹.
As for U49A A52G, the “self-cleavage kobs at 40 uM GlcN6P” value in data set [1] was less than 1e-05 s⁻¹.
Regarding A12U A64G, the “self-cleavage kobs at 40 uM GlcN6P” value in data set [1] turned out to be 0.000953 ± 0.00018 s⁻¹. Also, in data set [2], the “self-cleavage kobs at 160 uM GlcN6P” value was determined as 0.0025 ± 0.00063 s⁻¹. Moreover, the “self-cleavage kobs at 640 uM GlcN6P” value in data set [3] is 0.00536 ± 0.0011 s⁻¹. Besides, in data set [4], the “self-cleavage kobs at 2500 uM GlcN6P” value turned out to be 0.0169 ± 0.0043 s⁻¹. The “self-cleavage kobs at 10000 uM GlcN6P” value in data set [5] was found to be 0.052 ± 0.015 s⁻¹.
For the variant C11A C34U G63C, the “self-cleavage kobs at 40 uM GlcN6P” value in data set [1] is less than 1e-05 s⁻¹. In addition, the “self-cleavage kobs at 640 uM GlcN6P” value in data set [3] is less than 1e-05 s⁻¹. In addition, in data set [4], the “self-cleavage kobs at 2500 uM GlcN6P” value was less than 1e-05 s⁻¹.
Turning to G7C C11U G29A G40A A42U G62U, in data set [1], the “self-cleavage kobs at 40 uM GlcN6P” value is less than 1e-05 s⁻¹.
With G7A G13U U69G C71A, in data set [1], the “self-cleavage kobs at 40 uM GlcN6P” value was determined as 0.00031 ± 7.3e-05 s⁻¹. The “self-cleavage kobs at 10000 uM GlcN6P” value in data set [5] was found to be 0.000516 ± 0.00016 s⁻¹.
Turning to G7U C34U, the “self-cleavage kobs at 40 uM GlcN6P” value in data set [1] was less than 1e-05 s⁻¹. For the same variant, the “self-cleavage kobs at 2500 uM GlcN6P” value in data set [4] is less than 1e-05 s⁻¹.
Regarding A6G G51U U57C, the “self-cleavage kobs at 40 uM GlcN6P” value in data set [1] is less than 1e-05 s⁻¹. Also, the “self-cleavage kobs at 10000 uM GlcN6P” value in data set [5] was less than 1e-05 s⁻¹.
As to A6C C16A, in data set [1], the “self-cleavage kobs at 40 uM GlcN6P” value is less than 1e-05 s⁻¹. The “self-cleavage kobs at 160 uM GlcN6P” value in data set [2] was less than 1e-05 s⁻¹. The “self-cleavage kobs at 640 uM GlcN6P” value in data set [3] was less than 1e-05 s⁻¹. The “self-cleavage kobs at 2500 uM GlcN6P” value in data set [4] is less than 1e-05 s⁻¹.
A14U A39G G44A C50A C71A: the “self-cleavage kobs at 40 uM GlcN6P” value in data set [1] is less than 1e-05 s⁻¹. Also, the “self-cleavage kobs at 2500 uM GlcN6P” value in data set [4] is less than 1e-05 s⁻¹. Besides, the “self-cleavage kobs at 10000 uM GlcN6P” value in data set [5] is less than 1e-05 s⁻¹.
For the variant C10A G40U, the “self-cleavage kobs at 40 uM GlcN6P” value in data set [1] is less than 1e-05 s⁻¹. Moreover, the “self-cleavage kobs at 160 uM GlcN6P” value in data set [2] was less than 1e-05 s⁻¹. Moreover, the “self-cleavage kobs at 640 uM GlcN6P” value in data set [3] is less than 1e-05 s⁻¹. Also, the “self-cleavage kobs at 10000 uM GlcN6P” value in data set [5] was less than 1e-05 s⁻¹.
Regarding G29U U55G, in data set [1], the “self-cleavage kobs at 40 uM GlcN6P” value came to 4.62e-05 ± 1.1e-05 s⁻¹. In data set [3], the “self-cleavage kobs at 640 uM GlcN6P” value was 0.000282 ± 5.3e-05 s⁻¹. Moreover, in data set [4], the “self-cleavage kobs at 2500 uM GlcN6P” value turned out to be 0.00177 ± 0.00029 s⁻¹. Moreover, in data set [5], the “self-cleavage kobs at 10000 uM GlcN6P” value stood at 0.00239 ± 0.0003 s⁻¹.
